Source: paper PMC8517087, “Analysis of M4 Transmembrane Segments in NMDA Receptor Function: A Negative Allosteric Modulatory Site at the GluN1 M4 is Determining the Efficiency of Neurosteroid Modulation” (Frontiers in Pharmacology, 2021)
One block for each substance: values may come before it.

What was measured:
[1] = biological target: GluN1^ΔM4/GluN2A^F637A receptor (rat | mouse) (UniProt P35439)
[2] = biological target: GluN1/GluN2A^ΔM4 receptor (rat | mouse) (UniProt P35439)
[3] = biological target: GluN1^ΔM4/GluN2A receptor (M4-truncated core receptor) (rat | mouse) (UniProt P35439)

rescued Imax current (TEVC) of GluN1^ΔM4/GluN2A^F637A co-expressed with M4^N1, normalised to the unmutated receptor [1]: 50 % decrease
rescue of agonist-induced current: Imax by TEVC in oocytes co-expressing M4^N1 with GluN1/GluN2A^ΔM4 [2]: 0.016 µA
Substance: M4^N1, isolated GluN1 M4 fragment (GluN 1^802–925) (from UniProt P35439 802-925) (domain or fragment)

rescue of agonist-induced current (TEVC) in oocytes co-expressing M4^N1-F817A with GluN1^ΔM4/GluN2A, compared with wt M4^N1 [3]: 90 % decrease
Substance: M4^N1-F817A (from UniProt P35439 802-925) (domain or fragment)

rescue of agonist-induced current: Imax by TEVC in oocytes co-expressing M4^N2A with GluN1/GluN2A^ΔM4 [2]: 0.24 µA
Substance: M4^N2A, isolated GluN2A M4 fragment (GluN2A^804–1464) (from UniProt P35436 804-1464) (domain or fragment)
